Measured values from US20150344580A1 (MSM PROTEIN TECHNOLOGIES, published 2015).

T1: human chemokine receptor CCR7 (human, UniProt P32248 25-378)
T1 construct: On CHO, BHK, R1610 and Chem-1 transfectants and, natively, on human PBMC and the leukemia lines JVM-13 and CLL-AAT; also called human CCR7; hCCR7
T1 sequence: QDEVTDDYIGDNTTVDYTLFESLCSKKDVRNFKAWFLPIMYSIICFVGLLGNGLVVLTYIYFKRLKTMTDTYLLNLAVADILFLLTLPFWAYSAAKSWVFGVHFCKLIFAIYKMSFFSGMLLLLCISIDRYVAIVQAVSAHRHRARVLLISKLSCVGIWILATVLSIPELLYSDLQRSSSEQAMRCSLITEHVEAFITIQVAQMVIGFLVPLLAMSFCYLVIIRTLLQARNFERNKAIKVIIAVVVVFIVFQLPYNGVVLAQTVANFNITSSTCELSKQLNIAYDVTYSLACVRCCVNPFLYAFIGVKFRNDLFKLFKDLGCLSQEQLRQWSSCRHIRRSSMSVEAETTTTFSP

T2: human CXCR5 (human, UniProt P32302 1-372)
T2 construct: whole, on cells; CHO cells
T2 sequence (looked up): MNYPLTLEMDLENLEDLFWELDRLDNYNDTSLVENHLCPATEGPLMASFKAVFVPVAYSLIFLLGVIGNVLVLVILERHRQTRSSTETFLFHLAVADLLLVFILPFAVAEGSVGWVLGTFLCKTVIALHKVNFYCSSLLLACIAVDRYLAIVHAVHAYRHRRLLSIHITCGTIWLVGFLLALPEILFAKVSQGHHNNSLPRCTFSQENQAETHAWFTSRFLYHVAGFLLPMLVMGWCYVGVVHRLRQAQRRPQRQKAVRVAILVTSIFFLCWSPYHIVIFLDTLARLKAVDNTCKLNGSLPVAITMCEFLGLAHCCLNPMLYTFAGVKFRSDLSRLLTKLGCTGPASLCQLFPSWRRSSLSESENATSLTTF

T3: mouse CCR7 (mouse, UniProt P47774 25-378)
T3 construct: whole, on cells; On CHO-mouse CCR7 cells and on mouse splenocytes; also called mouse CCR7 ortholog
T3 sequence (looked up): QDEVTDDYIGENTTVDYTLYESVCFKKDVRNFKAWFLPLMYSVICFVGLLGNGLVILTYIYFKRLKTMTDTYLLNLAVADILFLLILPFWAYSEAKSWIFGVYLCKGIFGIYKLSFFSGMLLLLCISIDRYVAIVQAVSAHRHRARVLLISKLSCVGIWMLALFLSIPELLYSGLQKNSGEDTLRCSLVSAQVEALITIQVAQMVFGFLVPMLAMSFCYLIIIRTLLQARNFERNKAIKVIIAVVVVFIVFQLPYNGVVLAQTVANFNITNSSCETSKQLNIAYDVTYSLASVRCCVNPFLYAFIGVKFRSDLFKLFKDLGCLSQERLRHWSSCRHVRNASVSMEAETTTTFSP


Assays:
[1] = target: T1, human chemokine receptor CCR7; assay: flow cytometry titration, CCR7-expressing CHO cells; antibody kept 12 h at 40 C
[2] = target: T1, human chemokine receptor CCR7; assay: flow cytometry titration, CHO-human CCR7 cells
Protocol: (§1) The affinity of IgG1 antibodies to human CCR7 was evaluated by measuring mean fluorescence value (MFI) of cells expressing CCR7 in the presence of varying concentration of antibody in question, upon staining of bound to the cells antibodies with a commercial anti-human antibody-PE conjugate. The data of such experiments are depicted in FIGS. 9, 10, and 11. In these experiments binding of some antibodies to parental cells or cells expressing mouse CCR7 was also quantitatively characterized by obtaining EC₅₀ value (a concentration of IgG1 at which half-maximum MFI is achieved) for each curve using the SoftMaxPro5 program.

human CXCR6 = target: T4, human CXCR6 (human, UniProt O00574 1-342); assay: FACS, CHO-human CXCR6 cells
T4 construct: whole, on cells; CHO cells
T4 sequence (O00574 whole entry): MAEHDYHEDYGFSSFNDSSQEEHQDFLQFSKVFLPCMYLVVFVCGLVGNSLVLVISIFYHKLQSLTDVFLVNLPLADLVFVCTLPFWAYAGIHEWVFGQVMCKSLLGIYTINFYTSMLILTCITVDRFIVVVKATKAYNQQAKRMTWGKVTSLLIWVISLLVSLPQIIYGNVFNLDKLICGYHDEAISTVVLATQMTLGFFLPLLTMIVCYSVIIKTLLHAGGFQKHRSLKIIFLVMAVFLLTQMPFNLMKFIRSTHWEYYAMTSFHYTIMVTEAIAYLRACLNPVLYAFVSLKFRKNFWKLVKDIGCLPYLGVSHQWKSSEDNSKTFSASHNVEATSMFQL

[3] = target: T1, human chemokine receptor CCR7; assay: flow cytometry titration, cells expressing CCR7; after 4.5 months at 4 C (unit from the axis, nM)
human CCR5 = target: T5, human CCR5 (human, UniProt P51681 1-352); assay: FACS, CHO-human CCR5 cells
T5 construct: whole, on cells; CHO cells
T5 sequence (P51681 whole entry): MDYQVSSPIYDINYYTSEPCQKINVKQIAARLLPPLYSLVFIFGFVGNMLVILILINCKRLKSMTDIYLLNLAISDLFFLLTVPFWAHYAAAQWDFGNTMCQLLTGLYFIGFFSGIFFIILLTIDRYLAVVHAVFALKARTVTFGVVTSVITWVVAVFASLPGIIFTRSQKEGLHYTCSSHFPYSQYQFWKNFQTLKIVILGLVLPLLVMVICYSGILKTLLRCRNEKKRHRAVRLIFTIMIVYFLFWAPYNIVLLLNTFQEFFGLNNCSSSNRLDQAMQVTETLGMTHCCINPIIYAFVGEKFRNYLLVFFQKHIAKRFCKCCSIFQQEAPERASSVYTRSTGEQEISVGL
Protocol: In more details, the cell staining procedure was: […] cell suspension in 10 μl FACS buffer (1×PBS, 2.0% FBS, 0.2% sodium azide) was mixed with 10 μl of 200 nM the corresponding anti-CCR7 MAB and incubated on ice for 30 min. Washing step—after the incubation 150 μl of FACS buffer was added to the cell sample, the samples were mixed gently by up-down pipetting the cell suspension. Then the samples were centrifuged at 1100 rpm for 5 minutes, and supernatants were removed. Washing step was repeated ones. Then 10 μl of anti-human PE-(Fab)2 form Jackson Immuno Research Lab. #709-116-098 diluted 40 times in FACS buffer were added to the cells and the cells were re-suspended by up-down pipetting. After 20 min. incubation on ice in dark the washing step was repeated twice. The washed cells were mixed with 100 μl of FIX buffer (0.5% Paraformaldehyde solution in PBS). Fixed samples were stored in dark on ice and analyzed by FACS on Guava PCA-96 flow cytometer. The fluorescent signals collected from individual cells were obtained using fluorescence Activated Cell Sorter (FACS).

human CXCR5 = target: T2, human CXCR5; assay: FACS, CHO-human CXCR5 cells
mouse CCR7 [4] = target: T3, mouse CCR7; assay: flow cytometry titration, CHO cells expressing mouse CCR7
[5] = target: T1, human chemokine receptor CCR7; assay: flow cytometry, human CCR7 cells (summary table)
[6] = target: T1, human chemokine receptor CCR7; assay: flow cytometry titration, human CCR7-expressing CHO cells
mouse CCR7 [7] = target: T3, mouse CCR7; assay: flow cytometry titration, CHO-mouse CCR7 cells
Protocol: as §1

[8] = target: T1, human chemokine receptor CCR7; assay: flow cytometry titration, cells expressing CCR7; before storage (unit from the axis, nM)
mouse CCR7 [9] = target: T3, mouse CCR7; assay: flow cytometry, mouse CCR7 cells (summary table)
[10] = target: T1, human chemokine receptor CCR7; assay: cell-based or functional assay
[11] = target: T1, human chemokine receptor CCR7; assay: flow cytometry titration, CCR7-expressing CHO cells; antibody not heat-treated
[12] = target: T1, human chemokine receptor CCR7; assay: flow cytometry titration, BHK cells expressing human CCR7
Protocol: as §1

Row | Binder | EC50 [1] [nM] | EC50 [2] [nM] | binding result (human CXCR6) | EC50 [3] [nM] | binding result (human CCR5) | binding result (human CXCR5) | EC50 (mouse CCR7 [4]) [nM] | EC50 [5] [nM] | EC50 [6] [nM] | EC50 (mouse CCR7 [7]) [nM] | EC50 [8] [nM] | EC50 (mouse CCR7 [9]) [nM] | EC50 of killing of JVM-13 cells with Fab-ZAP [10] [nM] | IC50 of decrease in cell viability with human Fab-ZAP, JVM-13 cells [10] [nM] | IC50 of inhibition of Ca-flux induced by 15 nM CCL19, Chem-1 CCR7 human cells [10] [nM] | EC50 [11] [nM] | EC50 [12] [nM]
1 | MSM-R735 (fully human anti-human CCR7 antibody, IgG1) (antibody, IgG1 format; also called R735 Human IgG1) heavy: not shown light: EIVLTQSPGTLSLSPGERATLSCRASQSVSSSYLAWYQQKPGQAPRLLIYGASSRATGIPDRFSGSGSGTDFTLTISRLEPEDFAVYYCQQGSPVTFGQGTKVEIKRTVAAPSVFIFPPSDEQLKSGTASVVCLLNNFYPREAKVQWKVDNALQSGNSQESVTEQDSKDSTYSLSSTLTLSKADYEKHKVYACEVTHQGLSSPVTKSFNRGEC | 3.1 | 0.7 | no binding (tested: 200 nM MAB mixed 1:1 with cells) | 2.06 | no binding (tested: 200 nM MAB mixed 1:1 with cells) | no binding (tested: 200 nM MAB mixed 1:1 with cells) | 2.4 | 4 | 3.7 | ~642 | 2.47 | 1 | 19 | ~1.2 | 67 | 3 | –
2 | MSM-R710 (fully human anti-human CCR7 antibody, IgG1) (antibody, V domains shown, IgG1 format) VH: EVQLLESGGGLVQPGGSLRLSCAASGFTFSNYTMHWVRQAPGKGLEWVSGIGPRSGRTYYADSVKGRFTISRDNSKNTLYLQMNSLRAEDTAVYYCARSYAYQYRGFDYWGQGTLVTVSS VL: EIVLTQSPGTLSLSPGERATLSCRASQSVSSSYLAWYQQKPGQAPRLLIYGASSRATGIPDRFSGSGSGTDFTLTISRLEPEDFAVYYCQSSVTFGQGTKVEIKR | – | – | no binding (tested: 200 nM MAB mixed 1:1 with cells) | – | no binding (tested: 200 nM MAB mixed 1:1 with cells) | no binding (tested: 200 nM MAB mixed 1:1 with cells) | – | – | – | – | – | – | – | – | – | – | 3.8
